Where two headings read alike, the source gives them in different places.
Assays:
[1] = molecular target: T1, botulinum neurotoxin type A (BoNT/A), purified holotoxin (Clostridium botulinum, UniProt P0DPI0 2-1296)
[2] = molecular target: T1, botulinum neurotoxin type A (BoNT/A), …; assay: yeast display
[3] = molecular target: T1, botulinum neurotoxin type A (BoNT/A), …; assay: yeast displayed scFv, flow cytometry
[4] = molecular target: T1, botulinum neurotoxin type A (BoNT/A), …; assay: Kinexa
[5] = molecular target: T1, botulinum neurotoxin type A (BoNT/A), …; assay: cell-based or functional assay
[6] = molecular target: T1, botulinum neurotoxin type A (BoNT/A), …; remark: listed apart in the source
[7] = molecular target: T1, botulinum neurotoxin type A (BoNT/A), …; remark: listed apart in the source

B1: AR4 scFv (scFv, V domains shown)
VH: QVQLQESGGGLVQPGGSLRLSCAASGFTFEEHYMYWVRQAPGKGLEWVATISDGGSYTYYPDSVEGRFTTSRDNSKNTLYLQMNSLRAEDTAIYYCSRYRYDDAMDYWGQGTLVTVSS
VL: EIVLTQSPATLSLSPGERATISCRASESVDSYGHSFMQWYQQKPGQAPRLLIYRASNLEPGIPARFSGSGSGTDFTLTISSLEPEDFAVYYCQQGNEVPFTFGQGTKVEIK
- Kd [1]: 0.0226 nM
- fold higher affinity than HuC25 scFv [2]: 37 fold
- Kd [3]: 0.023 nM

B2: AR2 scFv (scFv, V domains shown)
VH: QVQLQESGGGLVQPGGSLRLSCAASGFTFSDHYMYWVRQAPGKGLEWVATISDGGSYTYYPDSVKGRFTTSRDNSKNTLYLQMNSLRAEDTAIYYCSRYRYDDAMDYWGQGTLVTVSS
VL: EIVLTQSPATLSLSPGERATISCRASESVDSYGHSFMQWYQQKPGQAPRLLIYRASNLEPGIPARFSGSGSGTDFTLTISSLEPEDFAVYYCQQGNEVPFTFGQGTKVEIK
- Kd [3]: 0.0614 nM
- fold increase against parental AR1 [3]: 2.8 fold

B3: AR4 IgG (antibody, V domains shown)
VH: QVQLQESGGGLVQPGGSLRLSCAASGFTFEEHYMYWVRQAPGKGLEWVATISDGGSYTYYPDSVEGRFTTSRDNSKNTLYLQMNSLRAEDTAIYYCSRYRYDDAMDYWGQGTLVTVSS
VL: EIVLTQSPATLSLSPGERATISCRASESVDSYGHSFMQWYQQKPGQAPRLLIYRASNLEPGIPARFSGSGSGTDFTLTISSLEPEDFAVYYCQQGNEVPFTFGQGTKVEIKR
- fold higher affinity than HuC25 IgG [4]: 34 fold

B4: AR3 scFv (scFv, V domains shown)
VH: QVQLQESGGGLVQPGGSLRLSCAASGFTFGEHYMYWVRQAPGKGLEWVATISDGGSYTYYPDSVEGRFTTSRDNSKNTLYLQMNSLRAEDTAIYYCSRYRYDDAMDYWGQGTLVTVSS
VL: EIVLTQSPATLSLSPGERATISCRASESVDSYGHSFMQWYQQKPGQAPRLLIYRASNLEPGIPARFSGSGSGTDFTLTISSLEPEDFAVYYCQQGNEVPFTFGQGTKVEIK
- Kd [3]: 0.019 nM

B5: AR1 scFv (scFv, V domains shown)
VH: QVQLQESGGGLVQPGGSLRLSCAASGFTFSDYYMYWVRQAPGKGLEWVATISDGGSYTYYPDSVKGRFTISRDNSKNTLYLQMNSLRAEDTAIYYCSRYRYDDAMDYWGQGTLVTVSS
VL: EIVLTQSPATLSLSPGERATISCRASESVDSYGHSFMQWYQQKPGQAPRLLIYRASNLEPGIPARFSGSGSGTDFTLTISSLEPEDFAVYYCQQGNEVPFTFGQGTKVEIK
- Kd [3]: 0.169 nM
- fold improvement of KD against HuC25 [3]: 5 fold

B6: HuC25 scFv (scFv, V domains shown)
VH: QVQLQESGGGLVQPGGSLRLSCAASGFTFSDYYMYWVRQAPGKGLEWVATISDGGSYTYYPDSVKGRFTISRDNSKNTLYLQMNSLRAEDTAMYYCSRYRYDDAMDYWGQGTLVTVSS
VL: EIVLTQSPATLSLSPGERATISCRASESVDSYGHSFMQWYQQKPGQAPRLLIYRASNLEPGIPARFSGSGSGTDFTLTISSLEPEDFAVYYCQQSNEDPFTFGQGTKVEIK
- Kd [3]: 0.844 nM

B7: C25 scFv (scFv)
scFv: QVQLQESGGGLVKPGGSLKLSCAASGFTFSDYYMYWVRQTPEKRLEWVATISDGGSYTYYPDSVKGRFTISRDNAKNNLYLQMSSLKSEDTAMYYCSRYRYDDAMDYWGQGTTVTVSSGGGGSGGGGSGGGGSDIELTQSPASLAVSLGQRATISCRASESVDSYGHSFMQWYQQKPGQPPKLLIYRASNLEPGIPARFSGSGSGTDFTLTINPVEADDVATYYCQQSNEDPFTFGSGTKLEIKR
- prolongation of time to neuroparalysis [5]: 2.7 fold

B8: 3D12 scFv (scFv, V domains shown)
VH: QVQLVQSGGGVVHPGRSLKLSCAGSGFTFSDYDMHWVRQAPGKGLEWVAVMWFDGTEKYSAESVKGRFTISRDNSKNTLFLQMNSLRADDTAVYYCAREPDWLLWGDRGALDVWGQGTTVTVSS
VL: DIVMTQSPSTLSASVGDRVTITCRASQSISSWLAWYQQKPGKAPKLLMYEASSLESGVPSRFSGSGSGTEFTLTISSLQPDDFAAYYCQHYNTYPYTFGQGTKLEIK
- prolongation of time to neuroparalysis [5]: 1.5 fold
- Kd [6]: 0.943 nM

B9: RAZ1 IgG (antibody, V domains shown)
VH: QVQLVQSGGGVVHPGRSLKLSCAGSGFTFSDYDMHWVRQAPGKGLEWVAVMWFDGTEKYSAESVKGRFTISRDNSKNTLFLQMNSLRADDTAVYYCAREPDWLLWGDRGALDVWGQGTTVTVSS
VL: DIVMTQSPSTLSASVGDRVTITCWASQSISSRLAWYQQKPGKAPKLLMYEATSLGSGVPSRFSGSGSGTEFTLTISSLQPDDFAAYYCQHYDTYPYTFGQGTKLEIKR
- fold higher affinity than 3D12 IgG [7]: 35 fold
